From patent US20190127447A1 (Ablynx, published 2019) come the findings set out here.

The assay has as its target RSV F protein of the hRSV Memphis 37 strain (human respiratory syncytial virus …). The experiment in a line: cell-based or functional assay.

B1: SEQ ID NO: 71 (VHH)
chain: DVQLVESGGGLVQAGGSLSISCAASGGSLSNYVLGWFRQAPGKEREFVAAINWRGDITIGPPNVEGRFTISRDNAKNTGYLQMNSLAPDDTAVYYCGAGTPLNPGAYIYDWSYDYWGRGTQVTVSSGGGGSGGGGSGGGGSEVQLVESGGGLVQAGGSLSISCAASGGSLSNYVLGWFRQAPGKEREFVAAINWRGDITIGPPNVEGRFTISRDNAKNTGYLQMNSLAPDDTAVYYCGAGTPLNPGAYIYDWSYDYWGRGTQVTVSSGGGGSGGGGSGGGGSEVQLVESGGGLVQAGGSLSISCAASGGSLSNYVLGWFRQAPGKEREFVAAINWRGDITIGPPNVEGRFTISRDNAKNTGYLQMNSLAPDDTAVYYCGAGTPLNPGAYIYDWSYDYWGRGTQVTVSS
Turning to B1, the “sensitivity in in vitro neutralization assays relative to RSV-B 18537” value amounted to 6 fold.
